Assay results published in patent US20140303084A1 (Biogen, published 2014).
Primed or numbered codes have the meaning given here. Side chains are listed from the residue outwards. Ends that are not written are not given here. * marks the point of attachment. Biotin = O=C1N[C@H]2[C@H](CS[C@H]2CCCCC(=O)*)N1; PEG2(3) = PEG2 spacer carrying biotin on Lys; PEG2″ = not defined here; PEG = not defined here; PEG2(4) = PEG2 spacer

biological target: human Factor IXa (human, UniProt P00740 47-191; P00740 227-461); test: cell-based or functional assay

| EC50 [µM], FXa generation assay with hFIXa | EC50 [µM], FXa generation assay | Binder |
| --- | --- | --- |
| > 100 µM | – | WSLCFKLTCAYL-NH2 (cysteine pairing not given here) [compound A] |
| – | < 0.5 µM | TQWAQVGPRGRRAQGKLTCLASYCWLFWTGIA [TQWAQVGPRG RRAQG KLTCLASYCWLFWTGIA] |
| – | < 0.5 µM | RRAPGKLTCLASYCWLFWTGFAFRVGLASSLY [RRAPGKLTCLASYCWLF WTGFA FRVGLASSLY] |
| – | > 1 µM | RRAPGKLTCLASYCWLK([PEG2″-Biotin])WTGIA (not fully specified; printed as RRAPGKLTCLASYCWLK(PEG2-Biotin)WTGIA; cysteine pairing not given here) [RRAPGKLTCLASYCWLK(PEG2-Biotin)WTGIA] |
| > 1 µM | – | PLKWTASGCRWLGCIQLARFAY-NH2 (cysteine pairing not given here) [compound B] |
| – | > 1 µM | RRAPGKLTCLASYCWLFWTGLSRYQWQAQEDV [RRAPGKLTCLASYCWLF WTGLS RYQWQAQEDV] |
| – | > 1 µM | TLWPWGGQGGRNAPGKLTCLASYCWLFWTGIA [TLWPWGGQGG RNAPG KLTCLASYCWLFWTGIA] |
| – | < 0.5 µM | SRIRTVGPGSRSASGKLTCLASYCWLFWTGIA |
| – | < 0.5 µM | TGLLQGRRDERARPPKLTCLASYCWLFWTGIA [TGLLQGRRDE RARPP KLTCLASYCWLFWTGIA] |
| – | > 1 µM | TSGPFGFGGSSRAQGKLTCLASYCWLFWTGIA [TSGPFGFGGS SRAQG KLTCLASYCWLFWTGIA] |
| < 0.5 µM | – | RRAPGKLQCLASYCWLFWTGIA-NH2 (not fully specified (bridges); cysteine pairing not given here) [compound 3] |
| – | < 0.5 µM | RRAPGKLTCLASYCWLFWTGK([PEG2(3)-Biotin])A (not fully specified (C-terminus); printed as RRAPGKLTCLASYCWLFWTGK(PEG2-Biotin)A; cysteine pairing not given here) [RRAPGKLTCLASYCWLFWTGK(PEG2-Biotin)A] |
| – | < 0.5 µM | RRAPGKLTCLK([PEG2(3)-Biotin])SYCWLFWTGIA (cysteine pairing not given here) [RRAPGKLTCLK(PEG2-Biotin)SYCWLFWTGIA] |
| – | < 0.5 µM | RRAPGKLTCLASYCWLFWTGIA (not fully specified; C-terminal PEG4) [RRAPGKLTCLASYCWLFWTGIA-PEG4] |
| – | < 0.5 µM | WRAGLDESQRDRAPGKLTCLASYCWLFWTGIA [WRAGLDESQR DRAPG KLTCLASYCWLFWTGIA] |
| – | < 0.5 µM | RRAPGKLTCLASYCWLFWTGWAVLARVPVGWT [RRAPGKLTCLASYCWLF WTGWA VLARVPVGWT] |
| – | < 0.5 µM | RRAPGKLTCLASYCWLFWTGIK([PEG2(3)-Biotin]) (not fully specified (C-terminus); printed as RRAPGKLTCLASYCWLFWTGIK(PEG2-Biotin); cysteine pairing not given here) [RRAPGKLTCLASYCWLFWTGIK(PEG2-Biotin)] |
| – | < 0.5 µM | RRAPGKLTCLASYCWLFWK([PEG2″-Biotin])GIA (not fully specified; printed as RRAPGKLTCLASYCWLFWK(PEG2-Biotin)GIA; cysteine pairing not given here) [RRAPGKLTCLASYCWLFWK(PEG2-Biotin)GIA] |
| – | < 0.5 µM | RRK([PEG2″-Biotin])PGKLTCLASYCWLFWTGIA (not fully specified; printed as RRK(PEG2-Biotin)PGKLTCLASYCWLFWTGIA; cysteine pairing not given here) [RRK(PEG2-Biotin)PGKLTCLASYCWLFWTGIA] |
| – | > 1 µM | RRAPGKLTCLASYCWLFWTGWCRDTASHACDS [RRAPGKLTCLASYCWLF WTGWC RDTASHACDS] |
| – | > 1 µM | RRAPGKLTCLASYCWLFWTGLASTLYKTYTRE [RRAPGKLTCLASYCWLF WTGLA STLYKTYTRE] |
| – | > 1 µM | RRAPGKLTCLASYCWLFWTGYASGKPSRVYVI [RRAPGKLTCLASYCWLF WTGYA SGKPSRVYVI] |
| – | < 0.5 µM | VGSGDERALPSRASGKLTCLASYCWLFWTGIA [VGSGDERALP SRASG KLTCLASYCWLFWTGIA] |

The remaining lines, values behind:

| Binder | EC50 [µM], FXa generation assay with hFIXa | EC50 [µM], FXa generation assay |
| --- | --- | --- |
| RRAK([PEG2(4)-Biotin])GKLTCLASYCWLFWTGIA (not fully specified (C-terminus); printed as RRAK(PEG2-Biotin)GKLTCLASYCWLFWTGIA; cysteine pairing not given here) [RRAK(PEG2-Biotin)GKLTCLASYCWLFWTGIA] | – | > 1 µM |
| LQLSYGEQRQSRAPGKLTCLASYCWLFWTGIA [LQLSYGEQRQ SRAPG KLTCLASYCWLFWTGIA] | – | < 0.5 µM |
| RRAPGKLTCLASYCWLFWRGFAERASEDTNQG [RRAPGKLTCLASYCWLF WRGFA ERASEDTNQG] | – | > 1 µM |
| RRAPGKLTCLASYCK([PEG2(3)-Biotin])LFWTGIA (not fully specified (C-terminus); printed as RRAPGKLTCLASYCK(PEG2-Biotin)LFWTGIA; cysteine pairing not given here) [RRAPGKLTCLASYCK(PEG2-Biotin)LFWTGIA] | – | < 0.5 µM |
| PSGWAGWAPGRREPGKLTCLASYCWLFWTGIA [PSGWAGWAPG RREPG KLTCLASYCWLFWTGIA] | – | > 1 µM |
| RRAPGKLTCLASYCWLFSTPVARKSLRRHQPT (not fully specified (C-terminus); cysteine pairing not given here) [RRAPGKLTCLASYCWLF STPVA RKSLRRHQPT] | – | > 10 µM |
| RRAPGKLTCLASYCWLFQTGWAYWGYRQHPGS [RRAPGKLTCLASYCWLF QTGWA YWGYRQHPGS] | – | < 0.5 µM |
| QRAGRVARLHRRAPNKLTCLASYCWLFWTGIA [QRAGRVARLH RRAPN KLTCLASYCWLFWTGIA] | – | > 1 µM |
| AVDSLPLYGARSAPSKLTCLASYCWLFWTGIA (not fully specified; cysteine pairing not given here) [AVDSLPLYGA RSAPS KLTCLASYCWLFWTGIA] | – | < 0.5 µM |
| HLFGADWLGARTAPGKLTCLASYCWLFWTGIA [HLFGADWLGA RTAPG KLTCLASYCWLFWTGIA] | – | > 1 µM |
| RRAPGK([PEG2(3)-Biotin])LTCLASYCWLFWTGIA (not fully specified (bridges); printed as RRAPGK(PEG2-Biotin)LTCLASYCWLFWTGIA; cysteine pairing not given here) [RRAPGK(PEG2-Biotin)LTCLASYCWLFWTGIA] | – | < 0.5 µM |
| RRAPGKLTCLASYCWK([PEG2(3)-Biotin])FWTGIA (not fully specified (C-terminus); printed as RRAPGKLTCLASYCWK(PEG2-Biotin)FWTGIA; cysteine pairing not given here) [RRAPGKLTCLASYCWK(PEG2-Biotin)FWTGIA] | – | > 1 µM |
| RRAPGKLTCLASYCWLFSTGVATHANTTATAQ [RRAPGKLTCLASYCWLF STGVA THANTTATAQ] | – | > 1 µM |
| RRAPGKLTCLASYCWLFEPGIAQPYAKSPTRN [RRAPGKLTCLASYCWLF EPGIA QPYAKSPTRN] | – | > 1 µM |
| RRAPGKLTCLASK([PEG2″-Biotin])CWLFWTGIA (not fully specified; printed as RRAPGKLTCLASK(PEG2-Biotin)CWLFWTGIA; cysteine pairing not given here) [RRAPGKLTCLASK(PEG2-Biotin)CWLFWTGIA] | – | < 0.5 µM |
| QWQIAGQVLKRRAPAKLTCLASYCWLFWTGIA [QWQIAGQVLKRRAPA KLTCLASYCWLFWTGIA] | – | < 0.5 µM |
| RK([PEG2(3)-Biotin])APGKLTCLASYCWLFWTGIA (not fully specified (C-terminus); printed as RK(PEG2-Biotin)APGKLTCLASYCWLFWTGIA; cysteine pairing not given here) [RK(PEG2-Biotin)APGKLTCLASYCWLFWTGIA] | – | < 0.5 µM |
| GYRVPVGGLVRRAHGKLTCLASYCWLFWTGIA [GYRVPVGGLV RRAHG KLTCLASYCWLFWTGIA] | – | > 1 µM |
| E([PEG-Biotin])RAPGKLTCLASYCWLFWTGIA (not fully specified; printed as Glu(Biotinyl-PEG)-RAPGKLTCLASYCWLFWTGIA; cysteine pairing not given here; reading uncertain) [Glu(Biotinyl-PEG)-RAPGKLTCLASYCWLFWTGIA] | – | > 4 µM |
| RRAPGKLTCK([PEG2(3)-Biotin])ASYCWLFWTGIA (cysteine pairing not given here) [RRAPGKLTCK(PEG2-Biotin)ASYCWLFWTGIA] | – | < 0.5 µM |
| RRAPGKK([PEG2(3)-Biotin])TCLASYCWLFWTGIA (cysteine pairing not given here) [RRAPGKK(PEG2-Biotin)TCLASYCWLFWTGIA] | – | > 5 µM |
